Assay: yeast display, Sf9 membrane polyspecificity reagent, FACS + sequencing; frameworks hold sequencing errors
Outline: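 Galactose induction of a Saccharomyces cerevisiae BJ5465 synthetic nanobody display library ran 36–48 hours. The cells were then stained for 1 hour at 4 °C with 10% biotinylated, detergent-solubilized Sf9 membrane reagent, pulled down on streptavidin microbeads and FACS-sorted into low and high (top ~1%) gates on expression and reagent-binding fluorescence. Labels for polyreactivity follow the gate of origin.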
With “QVQLVESGGGLVQAGGSLRLICAASGNTFYGYAMGWYRQAPGKERELVASITLSGDSTYYADSVKGRFTISRDNAKNTVYLQMNSLKPEDTAVYYCNRARHQYSRWHGGYYYWGQGTQVTVSS” the “polyreactivity (PSR sort gate)” value was “low polyreactivity”.
In the case of “QVQLVESGGGLVQAGGSLRLICAASGRIFALYAMGWYRQAPGKEREFVATITRGASTNYADSVKGRFTISRDNAKNTVYLQMNSLKPVDTAVYYCAAAGYKAAGRVVASYYWGQGTQVTVSS”, the “polyreactivity (PSR sort gate)” value is reported as “high polyreactivity”.
For “QVQLVESGGGLVQAGGSLRLICAASGRIFASYTMGWYRQAPGKERELVAGISRRGGSTYYADSVKGRFTISRDNAKNTVYLQMNSLKPEDTAVYYCAAVSSVFSVRYDYWGQGTQVTVSS”, the “polyreactivity (PSR sort gate)” value was “high polyreactivity”.
With “QVQLVESGGGLVQAGGSLRLICAASGRIFDYYGMGWYRQAPGKETELVATIRRGGSTYYADSVKGRFTISRDNAMNTVYLQMNSLKPEDTAVYYCAAPGYSWYTYRRYDYWGQGTQVTVSS” the “polyreactivity (PSR sort gate)” value was “high polyreactivity”.
With “QVQLVESGGGLVQAGGSLRLICAASGRIFFHYAMGWYRQAPGKVRELVAVISSTGGITNYADSVKGRFTISRDNAKNTVYLQMNSLKPEDTAVYYCNTVPRPFERYGYWGQGTQVTVSS” the “polyreactivity (PSR sort gate)” value was “low polyreactivity”.
For “QVQLVESGGGLVQAGGSLRLICAASGRIFKYNAMGWDRQAPGTERELVAAISSSGGSTYYADSVKGRFTISRDNAKYTVYLLMNSLKPEDTAVYYCAARFNSGVYRYDYWGQGTQVTVSS”, the “polyreactivity (PSR sort gate)” value was “high polyreactivity”.
For “QVQLVESGGGLVQAGGSLRLICAASGRIFNRNAMGWYRQAPGKERELVASISSGGRTNYADSVKGRFTISRDNAKNTVYLQMNSLKPEDTAVYYCAAKSPRILLDYWGQGTQVTVSS”, the “polyreactivity (PSR sort gate)” value was “low polyreactivity”.
With “QVQLVESGGGLVQAGGSLRLICAASGRIFRGYAMGWYRQAPGKERELVAAISGRGGRTNYADSVKGRFTISRDNAKNTVYLQMNSLKPEDTAVYYCATVPYTASRYEYWGQGTQVTVSS” the “polyreactivity (PSR sort gate)” value was “high polyreactivity”.
In the case of “QVQLVESGGGLVQAGGSLRLICAASGRIFRHYAMGWYRQAPGKEREFVAAISRSGGSTYYADSVKGRFTISRDNAKNTVYLQMHSLKPEDTAVYYCYARHRYTGIRFFQPYDYWGQGTQVTVSS”, the “polyreactivity (PSR sort gate)” value is reported as “low polyreactivity”.
With “QVQLVESGGGLVQAGGSLRLICAASGRIFRYNARGWYRQAPGKERELVAAISSGGSTNYADSVKGRFTTSRDNAKNTVYLQMNSLKPEDTAVYYCNAESVHRYPGWGYDYWGQGTQVTVSS” the “polyreactivity (PSR sort gate)” value was “low polyreactivity”.
With “QVQLVESGGGLVQAGGSLRLICAASGRIFTAYVMGWYRQAPGKERQLVAAITEGGGNTYYADSVKGRFTISRDNAKNTVYLQMNSLKPEDTAVYYCAARYLVNGRKRLYYWGQGTQVTVSS” the “polyreactivity (PSR sort gate)” value was “high polyreactivity”.
For “QVQLVESGGGLVQAGGSLRLICAASGRIFVGNTMGWYRQAPGKERELVAAITSSGGSTYYADSVKGRFTISRDNAKNTVYLQMNSLKPEDTAVYYCAARTREYQWRYYYWGQGTQVTVSS”, the “polyreactivity (PSR sort gate)” value was “high polyreactivity”.
In the case of “QVQLVESGGGLVQAGGSLRLICAASGRIFVPYAMGWYRQAPGKERELVAAITYDGGSTYYADSVKGRFTISRDNAKNTVYLQMNSLKPEDTAVYYCAADYGYSQYILGQFRLEELDYWGQGTQVTVSS”, the “polyreactivity (PSR sort gate)” value is reported as “low polyreactivity”.
With “QVQLVESGGGLVQAGGSLRLICAASGRIFVRNAMGWSRQAPGKERELVAAITSGGRTYYADSVKGRFTISRDNAQNTVYVQMNSLKPEDTAVYYCAARAGNASAIDVAYWGQGSQVTVSS” the “polyreactivity (PSR sort gate)” value was “low polyreactivity”.
In the case of “QVQLVESGGGLVQAGGSLRLICAASGRIINGYAMVWYRQAPGKERELVAANSVSGGSTYYADSVKGRFTISRDNAKNTVYLQMNSMKPEDTAVYYCNARIGSRSYAWISTRYDYWGQGNQVTVSS”, the “polyreactivity (PSR sort gate)” value is reported as “high polyreactivity”.
With “QVQLVESGGGLVQAGGSLRLICAASGRISVFYTMGWYRQAPGKERELVAVIRTSGGRTNYADSVKGRFTISRDNAKNTVYLQMNSLKPEDTAVYYCAARVVRYGYKYYYWGQGTQVTVSS” the “polyreactivity (PSR sort gate)” value was “low polyreactivity”.
In the case of “QVQLVESGGGLVQAGGSLRLICAASGRTFAINTMGWYRQAPGKERELVATISGSAGNTYYADSVKGRFTISRDNAKNTVYVQMNSLKPEDSAVYSCAARQRKARQIVLLDYWGQGTQVTVSS”, the “polyreactivity (PSR sort gate)” value is reported as “high polyreactivity”.
For “QVQLVESGGGLVQAGGSLRLICAASGRTFARYTMGWYRQARGKERELVASITRGGSTYYADSVKGRFTISRDNAKITVYLQMYSLKPEDSAVYYCNAVYIVGGDWGQGTQVTVSS”, the “polyreactivity (PSR sort gate)” value was “high polyreactivity”.
With “QVQLVESGGGLVQAGGSLRLICAASGRTFGKYAMGWYRQAPGKEMQLVAAITRRGGSTFYADSVKGRFRISRDNAKNTVYLQMNSLKPEDTAVYYCAARSTVGPQYGVRFNYWGQGTQVTVSS” the “polyreactivity (PSR sort gate)” value was “high polyreactivity”.
For “QVQLVESGGGLVQAGGSLRLICAASGRTFILYTMGWYRQAPGKERELVAAITTGGSTSYADSVKGRFTISRDNAKNTVYLQMNSLKPEDTAVYNWAADTVGYSWRWFTWYEMGYWGQGTQVTVSS”, the “polyreactivity (PSR sort gate)” value was “low polyreactivity”.
With “QVQLVESGGGLVQAGGSLRLICAASGRTFRFYAMGWYRQAPGKERELVAAINYGGGNTYYADSVKGRFTISRDNAKNTVYLQMNSLKADDTAVYYCAAQYYYRARWFPYDYWGQGTQVTVSS” the “polyreactivity (PSR sort gate)” value was “high polyreactivity”.
With “QVQLVESGGGLVQAGGSLRLICAASGRTFRVYAMGWYRQAPGKERELVASISRRGASTYYADSVKGRFTISRDIAKNTVYLQMNSLKPEDTAVYYCAADRRYYSVSPNTEFEYWGQGTQETVSS” the “polyreactivity (PSR sort gate)” value was “high polyreactivity”.

Reference: the nanobody polyreactivity screen of Harvey et al. (2022)
